Data: US20190309044A1, “POLYPEPTIDES AND USES THEREOF AS A DRUG FOR TREATMENT OF AUTOIMMUNE DISORDERS” (Compugen Ltd., priority 2017, published 2019)

Legend:
[1] = tested on: total splenocytes and lymph node cells; assay: Ex vivo recall responses, adoptive transfer R-EAE; format: in vivo, mouse; conditions: day 45; treatment from onset of remission
Protocol: On day 45 (unless otherwise indicated) following cell transfer, spleen and cervical lymph nodes or CNS from 3 representative mice of each group were collected, and the total cells were activated ex vivo at 0.5×10^6 cells per well with either OVA323-339, PLP139-151, PLP178-191, MBP84-104 (20 ug/ml), or anti-CD3 (1 ug/ml). Two sets of cultures were set up side-by-side. One set was pulsed with 1uCi of tritiated thymidine at 24 hours and harvested at 72 hours to determine cell proliferation. In the second set of cultures, supernatants were collected at 72 hours and tested for peptide-specific cytokine production as determined by LiquiChip.

[2] = tested on: healthy human skin transplanted onto beige-SCID mice; assay: Humanized psoriasis model, human skin xenografts on beige-SCID mice; format: in vivo, mouse; conditions: IHC; vs PBS
From the text: In this model, psoriasis is induced in xenotransplants of healthy human skin transplanted onto beige severe combined immunodeficiency (SCID) mice followed by intradermal (i.d.) injection of IL-2 enriched Peripheral Blood Mononuclear Cells (PBMCs) isolated from blood of psoriasis patients (Nickoloff, 1995; Wrone-Smith, 1996 Gilhar et al., 2002, 2006, 2011). The activity of these compounds was compared to that of Enbrel, a TNF inhibitor which is an approved biological drug for treatment of psoriasis. As a control for model robustness, we used dexamethasone, a steroid with suppressive effects on inflammatory cytokines and chemokines such as TNF-alpha and interferon-gamma which cause severe psoriasis. All treatments were administered intradermally, except for dexamethasone which was given topically.
2.2. Study Protocol A) Healthy human skin pieces with a width of 0.4 mm and surface area of 1.5×1.5 cm were provided from residual skin of routine plastic surgery procedures from the Plastic Surgery Department of the Rambam Medical Center, Israel. In addition, 20 mL blood samples were taken from psoriatic patients. B) Seventy (70) beige-severe combined immunodeficient mice (SCID) (weight ˜20-25 g) were included in this study. Normal healthy human donor skin was transplanted onto the beige-SCID mice as previously described (Nickoloff et al., 1995; Wrone-Smith, 1996; Gilhar et al., 2002, 2006, 2011; Kalish et al., 2009) and the mice were divided into 7 groups. C) Peripheral Blood Mononuclear Cells (PBMCs) isolated from psoriatic patients' blood were cultured in the presence of IL-2 [Prospec, 100 U/mL of RPMI 1640 media, 10% human AB serum (Sigma, St. Louis, Mo.), 1% glutamine, 1% antibiotics (media components; Biological Industries, Kibbutz Beit Haemeck, Israel)] for 14 days, as previously described (Gilhar et al, 2002). D) Four weeks following engraftment, each mouse was injected intra-dermally (i.d.) into the grafted skin lesion, with 1×10^7 activated allogeneic enriched PBMCs from psoriatic patients (FIG. 20). Cells from different psoriasis patients were equally distributed between treatment groups so that each patient is represented in each treatment group. E) On the day of PBMCs injection into the skin grafts, mice were divided randomly into treatment groups (n=9-10 mice per group) and administration of all drugs started (FIG. 20). All tested compounds including the vehicle were given intradermally (intralesional), three times a week, except for dexamethasone which was given topically for 14 consecutive days (Table 3).
F) Twenty eight days after starting the injections and treatment, skin was harvested (FIG. 20). Grafts were analyzed for the following psoriatic parameters by histology: epidermal thickening (acanthosis), suprapapillary epidermal thinning (papillomatosis), hyperkeratosis, parakeratosis, orthokeratosis, agranulosis-hypogranulosis, appearance of neutrophils in the upper spinous layer or in the corneal cell layer—Munro microabscess, regular elongation of rete ridges, angiogenesis, edema and dilated tortuous blood vessels in the dermal papilla and mononuclear cell infiltrate in the papillary dermis. Epidermal thickness was measured as detailed below, and HLA-DR, ICAM-1, Ki-67 and immune infiltrates (anti-CD3 stain) were evaluated by immunohistochemistry (IHC).
The entire skin graft was excised and placed in 10% formal saline overnight. Then, the specimens were place in 70% ethanol and were embedded according to the standard H&E protocol. Histological assessment of the skin grafts was performed by light microscopy and evaluated by two blinded observers [the second observer evaluated random slides (about 25% of all slides) to compare the data obtained by the first observer. […] Epidermal thickness was determined with an ocular micrometer at a minimum of 50 points along the epidermis selected to represent points of maximal and minimal thickness.
Representative grafts were allocated for IHC analysis. […]

B1: C1ORF32 ECD-Fc (SEQ ID NO:42): human-mouse fusion protein: human C1ORF32 ECD fused to mouse immunoglobulin Fc (SEQ ID NO:42) (protein)
chain: LQVTVPDKKKVAMLFQPTVLRCHFSTSSHQPAVVQWKFKSYCQDRMGESLGMSSTRAQSLSKRNLEWDPYLDCLDSRRTVRVVASKQGSTVTLGDFYRGREITIVHDADLQIGKLMWGDSGLYYCIITTPDDLEGKNEDSVELLVLGRTGLLADLLPSFAVEIMGSENLYFQGSGEPRGPTIKPCPPCKCPAPNLLGGPSVFIFPPKIKDVLMISLSPIVTCVVVDVSEDDPDVQISWFVNNVEVHTAQTQTHREDYNSTLRVVSALPIQHQDWMSGKEFKCKVNNKDLPAPIERTISKPKGSVRAPQVYVLPPPEEEMTKKQVTLTCMVTDFMPEDIYVEWTNNGKTELNYKNTEPVLDSDGSYFMYSKLRVEKKNWVERNSYSCSVVHEGLHNHHTTKSFSRTPGK
modifications: Fusion protein human C1ORF32-ECD fused to mouse IgG2a Fc
How did the “recall responses, cellular proliferation of splenocytes and lymph node cells” value [1] turn out when B1 was run?
Its value is “decreased level of cellular proliferation”.

What about the “infiltration of T cells (CD3 positive cells)” value [2] of the same molecule?
Its value is “significant reduction”.
